{"source": "patent CN112125972A", "about": "(SINOCELLTECH LTD, dated 2020)", "binders": {"B1": {"name": "HPV 16 R001 (antibody, V domains shown)", "VH": "QSVKESEGRLVTPGTPLTLTCTASGFTMSRYHMTWVRQAPGKGLEWIGIIYARNSDTYYANWAKGRFTISKTSTTVDLKITSPTIEDTATYFCARVDSDSSGAFDRLDLWGQGTLVTVSS", "VL": "DPMLTQTAASVEVAVGGTVTIKCQASQSIGGYLSWYQQKPGQRPKLLIYRASTLASGVPSRFKGSGSGTEYTLTFSGVECADAAAYYCQQGYTSSDINNAFGGGTEVVVK", "notes": "An HRP-labelled form served as detection antibody in the sandwich ELISA; also called HPV16.001; 单克隆抗体HPV 16 R001"}}, "key": {"HPV33 VLP [1]": {"biological_target": "T1, HPV33 VLP (Human papillomavirus type 33, UniProt P06416 1-499)", "T1 construct": "also called HPV33完整VLP蛋白", "T1 sequence": "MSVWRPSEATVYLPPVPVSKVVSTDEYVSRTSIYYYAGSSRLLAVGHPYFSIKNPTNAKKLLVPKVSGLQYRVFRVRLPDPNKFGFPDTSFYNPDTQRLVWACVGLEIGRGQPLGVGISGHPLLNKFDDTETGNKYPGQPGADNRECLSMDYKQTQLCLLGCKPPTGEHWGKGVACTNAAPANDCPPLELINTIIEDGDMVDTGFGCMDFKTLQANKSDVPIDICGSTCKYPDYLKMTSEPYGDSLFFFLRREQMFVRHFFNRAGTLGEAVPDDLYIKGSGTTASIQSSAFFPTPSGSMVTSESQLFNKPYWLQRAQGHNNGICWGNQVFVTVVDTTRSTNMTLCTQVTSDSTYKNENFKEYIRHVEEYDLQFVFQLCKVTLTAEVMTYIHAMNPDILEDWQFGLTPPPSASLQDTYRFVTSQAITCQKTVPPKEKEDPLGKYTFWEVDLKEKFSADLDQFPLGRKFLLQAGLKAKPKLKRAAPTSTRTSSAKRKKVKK", "test": "double-antibody sandwich ELISA, R001 as capture and HRP-R001 as detection, mixture of HPV types"}, "HPV18 VLP [2]": {"biological_target": "T2, HPV18 VLP (Human papillomavirus type 18, UniProt P06794 62-568)", "T2 construct": "also called HPV18完整VLP蛋白", "T2 sequence": "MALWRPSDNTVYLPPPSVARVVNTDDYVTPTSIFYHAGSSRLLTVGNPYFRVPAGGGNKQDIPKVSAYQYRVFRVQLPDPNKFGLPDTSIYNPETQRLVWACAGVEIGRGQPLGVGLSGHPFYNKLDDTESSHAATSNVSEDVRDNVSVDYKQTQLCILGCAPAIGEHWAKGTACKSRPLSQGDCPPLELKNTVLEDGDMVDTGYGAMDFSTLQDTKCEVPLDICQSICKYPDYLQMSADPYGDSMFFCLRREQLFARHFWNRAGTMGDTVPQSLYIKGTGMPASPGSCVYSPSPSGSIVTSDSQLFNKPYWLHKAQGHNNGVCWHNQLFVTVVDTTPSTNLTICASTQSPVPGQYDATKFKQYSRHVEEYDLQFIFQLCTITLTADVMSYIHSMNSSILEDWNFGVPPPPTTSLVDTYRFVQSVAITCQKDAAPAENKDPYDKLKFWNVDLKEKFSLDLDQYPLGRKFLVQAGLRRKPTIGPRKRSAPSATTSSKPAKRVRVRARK", "test": "double-antibody sandwich ELISA, R001 as capture and HRP-R001 as detection, mixture of HPV types"}, "HPV35 VLP": {"biological_target": "T3, HPV35 VLP (Human papillomavirus type 35, UniProt P27232 1-502)", "T3 construct": "also called HPV35完整VLP蛋白", "T3 sequence": "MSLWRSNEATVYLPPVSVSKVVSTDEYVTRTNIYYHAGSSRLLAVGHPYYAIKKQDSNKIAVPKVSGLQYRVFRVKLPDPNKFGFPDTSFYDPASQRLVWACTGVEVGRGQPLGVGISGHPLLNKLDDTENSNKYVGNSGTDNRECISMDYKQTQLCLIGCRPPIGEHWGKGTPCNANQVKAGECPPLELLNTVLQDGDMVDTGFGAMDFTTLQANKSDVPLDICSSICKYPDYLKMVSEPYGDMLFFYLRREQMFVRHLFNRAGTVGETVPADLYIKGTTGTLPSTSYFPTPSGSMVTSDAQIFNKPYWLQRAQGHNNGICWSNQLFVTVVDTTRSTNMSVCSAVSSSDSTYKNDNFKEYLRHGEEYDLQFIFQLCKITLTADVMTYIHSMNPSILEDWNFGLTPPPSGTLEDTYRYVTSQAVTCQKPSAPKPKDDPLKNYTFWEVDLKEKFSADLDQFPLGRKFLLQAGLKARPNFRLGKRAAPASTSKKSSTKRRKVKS", "test": "double-antibody sandwich ELISA, R001 as capture and HRP-R001 as detection, mixture of HPV types"}, "HPV33 VLP [3]": {"biological_target": "T1, HPV33 VLP", "test": "indirect ELISA, VLP coated at 2 μg/mL, antibody at 10 ng/mL"}, "HPV51 VLP": {"biological_target": "T4, HPV51 VLP (Human papillomavirus type 51, UniProt P26536 1-504)", "T4 construct": "also called HPV51完整VLP蛋白", "T4 sequence": "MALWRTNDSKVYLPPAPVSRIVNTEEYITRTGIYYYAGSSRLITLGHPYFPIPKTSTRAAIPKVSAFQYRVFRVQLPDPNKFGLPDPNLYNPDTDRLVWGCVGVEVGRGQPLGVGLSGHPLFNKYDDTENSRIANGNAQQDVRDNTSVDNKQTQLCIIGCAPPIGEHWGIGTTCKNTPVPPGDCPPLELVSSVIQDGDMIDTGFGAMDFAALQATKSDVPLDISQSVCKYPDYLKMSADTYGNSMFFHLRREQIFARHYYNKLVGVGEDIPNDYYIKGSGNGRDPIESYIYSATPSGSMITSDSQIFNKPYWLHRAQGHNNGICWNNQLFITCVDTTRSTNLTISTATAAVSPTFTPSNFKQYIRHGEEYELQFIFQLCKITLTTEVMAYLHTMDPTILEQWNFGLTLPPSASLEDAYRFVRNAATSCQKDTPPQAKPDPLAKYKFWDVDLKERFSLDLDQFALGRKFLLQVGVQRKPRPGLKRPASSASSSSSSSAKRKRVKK", "test": "indirect ELISA, VLP coated at 2 μg/mL, antibody at 10 ng/mL"}, "HPV18 VLP [4]": {"biological_target": "T2, HPV18 VLP", "test": "indirect ELISA, VLP coated at 2 μg/mL, antibody at 10 ng/mL"}}}
{"binder": "B1", "values": [{"measurement": "binding result", "setting": "HPV33 VLP [1]", "result": "no binding (tested: 50ng/mL，25ng/mL，12.5ng/mL)"}, {"measurement": "binding result", "setting": "HPV18 VLP [2]", "result": "no binding (tested: 50ng/mL，25ng/mL，12.5ng/mL)"}, {"measurement": "binding result", "setting": "HPV35 VLP", "result": "no binding (tested: 50ng/mL，25ng/mL，12.5ng/mL)"}, {"measurement": "OD450-blank", "setting": "HPV33 VLP [3]", "result": 0.001, "unit": "OD450"}, {"measurement": "OD450-blank", "setting": "HPV51 VLP", "result": 0.001, "unit": "OD450"}, {"measurement": "OD450-blank", "setting": "HPV18 VLP [4]", "result": 0, "unit": "OD450"}]}
